Target: dAPE1 C138A E96Q/D210N (crystallization) (human, UniProt P27695 44-318, E96Q;C138A;D210N;del1-43)
Assay: X-ray crystallography; 5 mM CaCl2 in reservoir; Anisotropy: 50 mM HEPES pH 7.4, 100 mM KCl, 5% glycerol, 20 mM EDTA, 37 C, 10 nM DNA. Crystals: 7-14% PEG 20K, 100 mM sodium citrate pH 5.0, 15% glycerol, 5 mM
Details: protein: recombinant; tags: untagged; nicked duplex, blunt ends; 8-oxoG opposite C (strand 1 position 12)

Chain of dAPE1 C138A E96Q/D210N (crystallization) (P27695 44-318 E96Q/C138A/D210N): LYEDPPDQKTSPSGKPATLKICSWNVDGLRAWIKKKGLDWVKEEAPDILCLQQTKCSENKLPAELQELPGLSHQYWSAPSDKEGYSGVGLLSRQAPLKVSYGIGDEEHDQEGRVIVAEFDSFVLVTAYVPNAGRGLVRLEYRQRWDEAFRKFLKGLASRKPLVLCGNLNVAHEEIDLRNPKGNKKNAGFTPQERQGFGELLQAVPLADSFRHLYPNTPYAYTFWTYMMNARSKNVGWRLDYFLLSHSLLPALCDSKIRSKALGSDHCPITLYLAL

B1: 21-mer nicked 3'-8-oxoG opposite C (crystal) (mixed)
DNA 1: GGATCCGTCGACCGCATCAGC
DNA 2: GCTGATGCGG
DNA 3: TCGACGGATCC
modifications: 8-oxoG at 3' end of strand 2 (position 10, written G); 5'-phosphate on strand 3
B1: binds.

From PMC9458457, “Processing oxidatively damaged bases at DNA strand breaks by APE1”
